Test results taken from the supplement of paper PMC9732359.
± gives the uncertainty stated by the source.

Assay: protein stability index of a GFP-peptide fusion (yeast GPS) (PSI 1-4); higher = more stable; sorted into four equal gates, so the index is relative within each strain
Outline: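 Tiled 17-residue yeast protein peptides were fused downstream of GFP in a plasmid that also expresses Cherry, and the pooled library was carried in yeast. Mid-log cultures in leucine-free medium were sorted into four equal gates by GFP/Cherry fluorescence ratio, and plasmids from each gate were PCR-amplified and Illumina-sequenced, with reads assigned to strains by barcodes. The protein stability index for each peptide was each gate's read frequency times its gate number, summed.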

Row | Sequence | protein stability index (doa10∆) | protein stability index (pdr5∆) | protein stability index (san1∆) | protein stability index (ubr1∆)
1 | LISIHSRENNSEYMVFG [YJL039C/NUP192] | 3.03 ± 0.11 | 2.25 ± 0.13 | 2.77 ± 0.1 | 3.15 ± 0.19
2 | NDSFKGLITNKMWFDVQ [PRP8] | 2.98 ± 0.16 | 2.99 ± 0.085 | 3.03 ± 0.11 | 3.08 ± 0.087
3 | FNAGSNPPSYQSSEDVI [RPB7] | 2.83 ± 0.24 | 2.67 ± 0.21 | 2.72 ± 0.27 | 2.65 ± 0.14
4 | LLESYKTLSLKSMASAF [RPN7] | 1.67 ± 0.093 | 2.31 ± 0.11 | 1.89 ± 0.14 | 1.12 ± 0.033
5 | SPIKNGSCTRQLAGKSG [YOR098C/NUP1] | 3.32 ± 0.084 | 3.02 ± 0.056 | 2.35 ± 0.07 | 3.08 ± 0.069
6 | AQFQYTLDRNTAAETFK [RPL8A] | 2.15 ± 0.082 | 2.08 ± 0.082 | 2.64 ± 0.27 | 2.06 ± 0.049
7 | GQPVNDFIDTATRHVLM [RPS3] | 2.96 ± 0.081 | 3.02 ± 0.06 | 3.1 ± 0.051 | 2.96 ± 0.07
8 | MRILSNDITNLQLSKTP [SRB8] | 2.59 ± 0.058 | 2.71 ± 0.08 | 2.92 ± 0.052 | 2.8 ± 0.046
9 | KDIRSTLASLIRYNSVE [RPC82] | 2.67 ± 0.14 | 2.13 ± 0.086 | 2.67 ± 0.12 | 2.45 ± 0.11
10 | EGNYRNLNNLKQENAYL [RPB8] | 3.31 ± 0.084 | 3.31 ± 0.085 | 3.27 ± 0.08 | 3.43 ± 0.068
11 | QDLNQRFQDPYVAIVVD [RRI1] | – | 2.79 ± 0.11 | 2.29 ± 0.15 | 2.71 ± 0.12
12 | VISIVGGHSLEEISFSL [PRP28] | 2.82 ± 0.13 | 2.73 ± 0.13 | 3.19 ± 0.091 | 3.18 ± 0.13
13 | TENAIEEKVIERAAQKL [ISW2] | 2.61 ± 0.095 | 2.74 ± 0.17 | – | 2.79 ± 0.051
14 | KVAPAPFGAKSTKSNKA [RPL8B] | 2.6 ± 0.085 | 2.78 ± 0.073 | 2.74 ± 0.061 | 2.7 ± 0.043
15 | QAQAQAQAQAQAQAQAQ [GAL11] | 2.84 ± 0.032 | 3.1 ± 0.034 | 3.101 ± 0.024 | 3.04 ± 0.033
16 | IIANINSFTKGNVFSPI [SNU114] | 2.18 ± 0.085 | 2.54 ± 0.067 | 2.43 ± 0.05 | 2.21 ± 0.039
17 | DPVSGAILVPMTVNDQP [YJR042W/NUP85] | 1.95 ± 0.18 | 2.03 ± 0.16 | 2.28 ± 0.087 | 2.4 ± 0.085
18 | TASSLAHDYNNDQDMFT [YML103C/NUP188] | 3.19 ± 0.067 | 3.04 ± 0.063 | 3.17 ± 0.046 | 3.12 ± 0.055
19 | AKAPSGLDQSRIPFSER [FAS1] | 2.19 ± 0.081 | 2.19 ± 0.061 | 2.12 ± 0.25 | 2.56 ± 0.047
20 | ESLKNLNESRSQHKKIL [SMC3] | 2.78 ± 0.13 | 3.05 ± 0.098 | 2.85 ± 0.1 | 3.04 ± 0.096
21 | WIQVFGLRTENVLDYFA [MED6] | – | – | 2.38 ± 0.14 | 2.34 ± 0.067
22 | DGKKHSVFYTILRDYGP [RPO31] | 2.86 ± 0.072 | 2.95 ± 0.067 | 3.19 ± 0.054 | 2.87 ± 0.06
23 | RKGGPATAEKLPNIYPS [RPT2] | 2.89 ± 0.13 | 3.54 ± 0.25 | 2.81 ± 0.13 | –
24 | RFMKGRRSKQLINLAKT [RPC82] | 2.56 ± 0.1 | 2.78 ± 0.11 | 2.72 ± 0.074 | 2.62 ± 0.12
25 | FRKVKLRVDEVQGKNLL [RPS1B] | 3.25 ± 0.1 | 3.35 ± 0.15 | – | 3.28 ± 0.074
26 | DITGIRDVSDDVFDTLA [GRR1] | 3.02 ± 0.12 | 3.04 ± 0.07 | 2.95 ± 0.075 | 2.97 ± 0.067
27 | CGDSIICNTLNIAKDLK [SMC1] | 1.78 ± 0.079 | 1.66 ± 0.067 | 1.42 ± 0.12 | 2.12 ± 0.075

Row | Sequence | protein stability index (doa10∆) | protein stability index (pdr5∆) | protein stability index (san1∆) | protein stability index (ubr1∆)
28 | LSLDSDVKFPSNTTTQI [SMC3] | 2.9 ± 0.25 | 3.37 ± 0.14 | 2.81 ± 0.15 | 3.32 ± 0.18
29 | RELLKSQVEDFTRIFLP [SIR3] | 3.2 ± 0.053 | 3.1 ± 0.059 | 3.13 ± 0.053 | 3.33 ± 0.045
30 | PGAKPLQVGDVVSTTAV [FAS1] | 2.51 ± 0.075 | 2.42 ± 0.086 | 2.48 ± 0.077 | 2.66 ± 0.065
31 | SIMPDLYFYRDPEEVEQ [RPS0A] | 2.86 ± 0.082 | 2.95 ± 0.077 | 2.94 ± 0.063 | 2.85 ± 0.06
32 | ILTTAVGLVSPSFMLKH [RPN1] | 1.96 ± 0.16 | 1.93 ± 0.12 | 1.3 ± 0.13 | 1.52 ± 0.077
33 | KNAGLGFKTPKTAIEGS [RPS11A] | 3.01 ± 0.047 | 3.12 ± 0.055 | 3.11 ± 0.035 | 3.13 ± 0.041
34 | VIDTLAAGYGKILGKGR [RPL28] | 3.09 ± 0.12 | 2.63 ± 0.085 | 3.11 ± 0.17 | 3.52 ± 0.14
35 | WMMNGALQILNSGIIPG [FAS2] | 1.7 ± 0.092 | 1.86 ± 0.092 | 2.52 ± 0.15 | 1.46 ± 0.24
36 | RISEKSVRKFLEIALFK [RPO31] | 1.93 ± 0.14 | 1.15 ± 0.13 | – | –
37 | YIYSQETKSWINESAEN [MED1] | 2.58 ± 0.047 | 2.66 ± 0.039 | 2.46 ± 0.048 | 2.48 ± 0.031
38 | IERDSLVDDENEPSQSL [BRN1] | 3.27 ± 0.12 | 3.41 ± 0.12 | 3.18 ± 0.082 | 3.2 ± 0.077
39 | GGSGAATFSVSQASSDL [CSL4] | 3.4 ± 0.08 | 3.31 ± 0.074 | 3.43 ± 0.061 | 3.36 ± 0.06
40 | VAAFVNNYPNVELTYSL [BRR2] | 2.61 ± 0.11 | 2.82 ± 0.087 | 2.74 ± 0.082 | 2.9 ± 0.087
41 | RNVLSASLDGTIRLWEC [RPN14] | 2.95 ± 0.068 | 3.09 ± 0.073 | 3.14 ± 0.042 | 2.82 ± 0.043
42 | LKLNTSLPSKLTKYKEM [SRP68] | 1.77 ± 0.075 | 1.74 ± 0.065 | 1.58 ± 0.1 | 1.95 ± 0.053
43 | LAHYVVTAKLLGFTPGE [FAS1] | 1.6 ± 0.13 | 1.28 ± 0.082 | – | 1.48 ± 0.12
44 | QALDISKKGKPTVNKKP [SRP72] | 2.59 ± 0.16 | 2.82 ± 0.1 | 2.36 ± 0.16 | 2.3 ± 0.14
45 | EHKSQVVLYNYYLGQYY [CSN12] | 2.23 ± 0.12 | 1.81 ± 0.13 | 2.71 ± 0.086 | 2.03 ± 0.055
46 | QMQQQQQAQAQAQAQAQ [GAL11] | 2.1 ± 0.074 | 2.08 ± 0.053 | 2.19 ± 0.059 | 1.97 ± 0.057
47 | KSAMDTFKSVSKYGMLL [POP3] | 2.41 ± 0.063 | 2.87 ± 0.056 | 2.7 ± 0.07 | 2.45 ± 0.055
48 | DSADVPAFSNSNGFNNV [YMR153W/NUP53] | 3.1 ± 0.062 | 3.2 ± 0.067 | 3.22 ± 0.041 | 3.23 ± 0.048
49 | KELQYDNEQNLESDFVT [PRE2] | 2.93 ± 0.092 | 3.16 ± 0.075 | 2.91 ± 0.075 | 3.02 ± 0.055
50 | TEAGFFAIRDDRDHINP [RPT4] | 2.49 ± 0.08 | 2.99 ± 0.072 | 3.12 ± 0.058 | 3.27 ± 0.045
51 | EMDSVSKSMKFSRRFDC [CSN9] | 2.56 ± 0.11 | 2.6 ± 0.076 | 2.71 ± 0.054 | 2.85 ± 0.047
52 | GIDPDETVPDNVKTSVS [RPO31] | 2.83 ± 0.22 | – | – | –
53 | ILRSIPDKLLGVILMFA [COB] | 2.35 ± 0.06 | 1.58 ± 0.046 | 1.65 ± 0.069 | 1.52 ± 0.054
54 | ELNDNPAWFNNPRKRAI [YMR153W/NUP53] | 3.09 ± 0.089 | 2.96 ± 0.066 | 2.48 ± 0.037 | 2.98 ± 0.051
